Test results published in US20200370085A1.

What follows are substances tested against VEGF (UniProt P15692) (assay: solution equilibrium titration (SET) ELISA, crude IVT product 1:400, monovalent fit).
UniProt P15692, sequence (P15692 other isoform, or with tags, fused parts or gaps limits assumed): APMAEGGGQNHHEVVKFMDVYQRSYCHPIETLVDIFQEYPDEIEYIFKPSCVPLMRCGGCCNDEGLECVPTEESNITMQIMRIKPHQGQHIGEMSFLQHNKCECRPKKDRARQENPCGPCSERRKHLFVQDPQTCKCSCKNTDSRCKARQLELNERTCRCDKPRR

| Kd [pM] | Substance |
| --- | --- |
| 8.99 | [S105T] Avastin scFv |
| 11.1 | [H101Y] Avastin scFv |
| 4.03 | [N31H] Avastin scFv |
